Experimental data: paper PMC5922973, “Topoisomerase VI senses and exploits both DNA crossings and bends to facilitate strand passage” (eLife, 2018)

Biological target: T1, topo VI H2TH-EEE (Methanosarcina mazei, UniProt Q8PUB7;Q8PUB8 1-369;1-621, R263E;K268E;K308E)
T1 sequence 1: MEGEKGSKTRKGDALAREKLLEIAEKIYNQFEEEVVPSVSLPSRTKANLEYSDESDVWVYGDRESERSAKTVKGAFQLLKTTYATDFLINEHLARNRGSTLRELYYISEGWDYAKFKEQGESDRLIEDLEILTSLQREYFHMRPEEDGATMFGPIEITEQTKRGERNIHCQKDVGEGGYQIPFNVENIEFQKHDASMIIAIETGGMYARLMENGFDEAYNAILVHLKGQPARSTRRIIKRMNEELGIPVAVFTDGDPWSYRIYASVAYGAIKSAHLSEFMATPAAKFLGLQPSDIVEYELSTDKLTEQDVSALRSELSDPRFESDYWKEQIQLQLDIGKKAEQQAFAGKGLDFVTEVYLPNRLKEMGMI
T1 sequence 2: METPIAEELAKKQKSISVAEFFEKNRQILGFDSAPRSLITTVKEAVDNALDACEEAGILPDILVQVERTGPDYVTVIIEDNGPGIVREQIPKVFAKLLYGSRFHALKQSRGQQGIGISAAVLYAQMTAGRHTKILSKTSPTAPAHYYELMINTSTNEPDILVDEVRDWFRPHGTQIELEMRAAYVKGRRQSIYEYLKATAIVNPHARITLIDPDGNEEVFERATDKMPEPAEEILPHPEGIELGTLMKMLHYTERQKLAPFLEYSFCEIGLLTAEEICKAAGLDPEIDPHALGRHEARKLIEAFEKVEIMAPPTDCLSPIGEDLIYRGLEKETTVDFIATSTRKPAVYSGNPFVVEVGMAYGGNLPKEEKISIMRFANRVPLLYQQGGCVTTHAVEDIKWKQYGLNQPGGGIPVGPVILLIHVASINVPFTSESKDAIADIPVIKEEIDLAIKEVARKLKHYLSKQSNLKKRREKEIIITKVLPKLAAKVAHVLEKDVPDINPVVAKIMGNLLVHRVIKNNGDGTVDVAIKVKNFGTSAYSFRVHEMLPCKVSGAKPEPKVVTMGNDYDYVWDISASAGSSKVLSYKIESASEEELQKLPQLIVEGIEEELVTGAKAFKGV
Test: fluorescence anisotropy; Hill h 1.6; FA: 20 nM probe, 50 mM K-glutamate, 20 mM HEPES-KOH pH 7.5, 10 mM MgCl2, 5% glycerol, 1 mM TCEP, 0.1 mg/mL BSA; incubated on ice, read at ambient temperature; competition with 100 nM enzyme
Conditions: protein: recombinant; tags: N-terminal His6-TEV on Top6B, removed; chain copies: 2;2; label: 5'-FAM strand 1; blunt

B1: 40 bp duplex (dsDNA)
DNA 1: CTATTGAAAAAGGAAGAGTATGAGTATTCAACATTTCCGC
DNA 2: GCGGAAATGTTGAATACTCATACTCTTCCTTTTTCAATAG
  Kd: 45 ± 2 nM
